Test system: MS2 coat protein
Test: apparent KD of MS2 coat protein; higher = weaker reporter binding
Details: Eterna round: R107
Procedure, shortened: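 For every design, apparent KD is the median of normalised binding-curve fits from its clusters. The RNA switches were transcribed on-chip from Illumina sequencing clusters and titrated with SNAP-549-labelled MS2 coat protein (twofold steps, 0.7 or 1.5 nM to 3 µM; 0.8–1.5 h to 10–20 min per step). Titrations used 100 mM Tris-HCl pH 7.5, 80 mM KCl, 4 mM MgCl2, without or with constant ligand.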

[1] = input ligand: theophylline 20 uM
[2] = input ligand: theophylline 2 mM
[3] = input ligand: tryptophan 2.4 mM

Sequence	apparent KD of MS2 coat protein (input ligand: arginine 13.2 mM) [nM]	apparent KD of MS2 coat protein (input ligand: none) [nM]	apparent KD of MS2 coat protein [1] [nM]	apparent KD of MS2 coat protein [2] [nM]	apparent KD of MS2 coat protein [3] [nM]
GAGAGUGUGUGCGAAAGCACAGAUCUGGAAGGAGCGUAGAAAGAUACAGGUAGGUCGCCGGGACAUGAGGAUCACCCAUGUGUAU [ArgiA-ms2@63]	38.9	37.7	52.6	35.8	34.2
GAGCACAUGAGGAUCACCCAUGUUGGCACACGAGGACCGGUACGGCCGCCACUCGCGGCGGGAAUAACUUUGCGCAGAUGAUGGG [theeternabot_sameState_MS2_Trp_A_50]	27.5	23.9	37.5	23.7	21.4
GAGCGCGUGGACUGGCGUGCUCCGCUCCGUCGAGGACCGGUACGGCCGCCACUCGACAUGAGGAUCACCCAUGUGUGCGCUCGCG [#1 Exclusion - Tryptophan A Attempt #19 (HarryS)]	32.9		210	317	
GAGCUGAUGUAGGCCGGAUAUCCGGGAGAUACCAGUACAGAAAUGUACCCUUGGCAGCUCUUUCUUACAUGAGGAUCACCCAUGU [Ex Theophylline A 27]	11.5	13.1	15.4	19.1	13.4
GAUCAAAGAUCACAUGAGGAUCACCCAUGUCGAGGACCGGUACGGCCGCCACUCGCGGCGGUGAAAAUAGAUACAAAGUAUCUAU [Ex_TrypA - ViennaApproves]	40.1		83.9	86.1	
GAUCUGUCGGGUGAUACCAGCCUCGGCGCGUCUCGCGCUGAACAUGAGGAUCACCCAUGUGGCCCUUGGCAGCACAUGACAAAUC [Ditere]	189		488		598
GAUGAACUAUUUGAUACCAGACUACAUGAGGAUCACCCAUGUGAGUUUAUACUUCUGUCAGUCCCUUGGCAGCAAAUAGUUUAUC [XTheo B #5]	21.5		27.8		16.4
GCAAAGUGAUCGGCCGCCACUGCAAUGCUUAAUGGAGGUCCACAUGAGGAUCACCCAUGUCUUCCCAGGACCGGGAUCUCGAGUU [theeternabot_sameState_MS2_Trp_B_3]	59		65.5	72.6	
GCAACGCUGUCGGCCGCCACUUUUACAUUGGCCGUGCUGUCUCUACAUGAGGAUCACCCAUGUGGAAGGACCGGGACAGCACACU [Arzaleer]	21.2		39.6	44.7	
GCAAUACAUGAGGAUCACCCAUGUGCAGAUACCAGAGGUGUAUGCCUCCCUUGGCAGCUGCGACGCUCUGGCAUCUUGUGGGAUG [Same State Theophylline A GF19]	22.2		73.7		52
GCACAAGAUGGAAGGAGCGCUGGAAAAGGUCACAUGAGGAUCACCCAUGUUCUCCUAACCGAGCAGGUAGGUCGCCAUCUUGUGC [SSAB NP+V+V2 #1]	24	23.7	25.6	29.8	25.9
GCACAUGAGGAUCACCCAUGUAUUACUGAAGGAGCGAGACAGAACUCAGGUAGGUCGCAGACGGCGGAAUCGCCGACGACAUGGG [Exclusion Arginine A GF23]	20.3	36.7	66.5	40.7	27.7
GCACCAGGUACGGAUACCAGCUGCCAGCGUUACAUGAGGAUCACCCAUGUGAUCUGAAGUAGCCCUUGGCAGCUGUACCUGGUGC [SSThB NP+V+V2 #4 +-Same Structure]	96.7		207		62
GCACGACAUGAGGAUCACCCAUGUGCAGAUACCAGUAAUGUAUAUUACCCUUGGCAGCUGAGUAGGUCUGGAGGGCUAUAGGUAA [Same State Theophylline A GF11]	11.6	12.3	20.6	15.4	14.6
GCAUCCUAGUCGGCCGCCACUGCAUCACCGGUCCUAGGUGAUCAACAUGAGGAUCACCCAUGUAGCAGGACCGGGACUAGGAUGC [(Trp1)-(MT)''-(MT)'-(Ms2)-(Trp2)_Design2]	345	491	320	636	19.9
GCAUCCUAGUCGGCCGCCACUGCAUGUAGAUACCUGCUACAUGAACAUGAGGAUCACCCAUGUAGCAGGACCGGGACUAGGAUGC [(Trp1)-(MT)''-(MT)'-(Ms2)-(Trp2)_Design1]	47.4	58.8	63.6	69.4	15.5
GCAUUACAUGAGGAUCACCCAUGUCUAGAUACCAGAUUUGUUUGAAUCCCUUGGCAGCUAGUGGACCACCGUACACGACAUACUA [theeternabot_sameState_MS2_Theo_A_17]	29.8		47.1		44
